From patent publication US12448430B2 (dated 2025) come the findings set out here.

Test [1] addresses T1, Wilms tumor protein 1 (WT1) peptide on HLA-A*02:01 (human).
T1 peptide: VLDFAPPGA
Kind of test: multimer staining.

The target of test [2] is T1, Wilms tumor protein 1 (WT1) peptide on …. Kind of test: killing.

B1: WT137-45 TCR10.1 (TCR, V domains shown)
Valpha: KQEVTQIPAALSVPEGENLVLNCSFTDSAIYNLQWFRQDPGKGLTSLLLIQSSQREQTSGRLNASLDKSSGRSTLYIAASQPGDSATYLCAVKETSGSRLTFGEGTQLTVNP
Vbeta: GAGVSQSPRYKVTKRGQDVALRCDPISGHVSLYWYRQALGQGPEFLTYFNYEAQQDKSGLPNDRFSAERPEGSISTLTIQRTEQRDSAMYRCASSLTGSYEQYFGPGTRLTVT
Take B1: the binding result in test [1] is recorded as “recognises”.

B2: WT137-45 TCR15.1 (TCR, V domains shown)
Valpha: GQNIDQPTEMTATEGAIVQINCTYQTSGFNGLFWYQQHAGEAPTFLSYNVLDGLEEKGRFSSFLSRSKGYSYLLLKELQMKDSASYLCAVRGINDYKLSFGAGTTVTVRA
Vbeta: DGGITQSPKYLFRKEGQNVTLSCEQNLNHDAMYWYRQDPGQGLRLIYYSQIVNDFQKGDIAEGYSVSREKKESFPLTVTSAQKNPTAFYLCASSRDREQESPLHFGNGTRLTVT
In the case of B2, the binding result in test [2] is reported as “recognises”.
